Data taken from the supplement of paper PMC7125110.
± gives the standard error. Fewer inactive variants are shown than the library holds.

B1: glmS ribozyme (parent)
chain: AUAAAAGCGCCAGAACUACAGAAAUGUAGUUGACGAGGAGGAGGUUUAUCGAAUUUUCGGCGGAUGCCUCCAAA

Columns and labels:
Details in all cases: with glucosamine-6-phosphate
glucosamine-6-phosphate [1] = variants of: B1; assay: self-cleavage kobs at 40 uM GlcN6P; higher = faster cleavage; RNA array
Outline: (§1)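 Barcoded glmS ribozyme variants on sequenced MiSeq chips were transcribed in situ by E. coli RNA polymerase and tracked through a hybridised Cy3 probe at 37 °C. Glucosamine-6-phosphate (40 μM to 10 mM) in HEPES/KCl/Mg(OAc)2 buffer was flowed in, and tiles were imaged over ~14 h. Signals were normalised to baseline and to non-cleaving reference variants; per-tile medians were fit to one- or two-exponential decays to give kobs. kcat and KM came from weighted Michaelis–Menten fits across concentrations.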

glucosamine-6-phosphate [2] = variants of: B1; assay: self-cleavage kobs at 2500 uM GlcN6P; higher = faster cleavage; RNA array
Outline: as §1

glucosamine-6-phosphate [3] = variants of: B1; assay: self-cleavage kobs at 160 uM GlcN6P; higher = faster cleavage; RNA array
Outline: as §1

glucosamine-6-phosphate [4] = variants of: B1; assay: self-cleavage kobs at 640 uM GlcN6P; higher = faster cleavage; RNA array
Outline: as §1

glucosamine-6-phosphate [5] = variants of: B1; assay: self-cleavage kobs at 10000 uM GlcN6P; higher = faster cleavage; RNA array
Outline: as §1

Row | Variant | self-cleavage kobs at 40 uM GlcN6P (glucosamine-6-phosphate [1]) | self-cleavage kobs at 2500 uM GlcN6P (glucosamine-6-phosphate [2]) | self-cleavage kobs at 160 uM GlcN6P (glucosamine-6-phosphate [3]) | self-cleavage kobs at 640 uM GlcN6P (glucosamine-6-phosphate [4]) | self-cleavage kobs at 10000 uM GlcN6P (glucosamine-6-phosphate [5])
1 | AUAAAAGCGCCCGAACUACAGAAAUGUAGAUGACGAGCAGGAGGUUUAUCGAAUUUUCGGUGGAUGCCUCCAAA [A12C U30A G38C C61U] | < 1e-05 s⁻¹ | < 1e-05 s⁻¹ | – | – | –
2 | AUAAAAGCGCCAGAACUACAGAAAUGUAGUUGACGAGGAGCAGGUUUAUCGAAUUUUCGUCGGAUGCCUCCAAA [G41C G60U] | < 1e-05 s⁻¹ | < 1e-05 s⁻¹ | < 1e-05 s⁻¹ | < 1e-05 s⁻¹ | –
3 | AUAAACGCGCCAGAACUACAGAAAUGUAGUUAAUGAGGAGGAGGUUUAUCGAAGUUUUGGCGGAUACCUCCAAA [A6C G32A C34U U54G C58U G66A] | < 1e-05 s⁻¹ | – | – | – | < 1e-05 s⁻¹
4 | AUAAAAGCGCCAGAACUACAGAAAUGUAGUCGACGAGGAGGAGUUUUAUCGAAUUUUCGGCGGAUGCCUCCAAA [U31C G44U] | < 1e-05 s⁻¹ | – | < 1e-05 s⁻¹ | – | 2.15e-05 ± 1e-05 s⁻¹
5 | AUAAAAGCGUCAGAACUACAGAAAUGUAGUUGACGAGGAGGAGGCUUAUCGAAUUUUCGGCGAAUGCCUCCAAA [C10U U45C G63A] | < 1e-05 s⁻¹ | – | < 1e-05 s⁻¹ | < 1e-05 s⁻¹ | –
6 | AUAAAAGCGACAGAACUACAGAAAUGUAGUUGACGAGGAGGAAGCUUAUCGAAUUUUCGGCGGAUGCCUCCAAA [C10A G43A U45C] | < 1e-05 s⁻¹ | – | – | – | –
7 | AUAAAGGCGCCAGAACUACAGAAAUGUAGUUGACGAGGAGGAGAUUUAUCGAAUUUUCGGCGGAUGCCUCCAAA [A6G G44A] | < 1e-05 s⁻¹ | < 1e-05 s⁻¹ | < 1e-05 s⁻¹ | < 1e-05 s⁻¹ | < 1e-05 s⁻¹
8 | AUAAAAGCUCCAGAACUACAGAAAUGUAGUUGACGAGGAGGAGGGUUAUCGAAUUUUCGGCGGAUGCCUCCAAA [G9U U45G] | < 1e-05 s⁻¹ | < 1e-05 s⁻¹ | < 1e-05 s⁻¹ | < 1e-05 s⁻¹ | < 1e-05 s⁻¹
9 | AUAAAAGCGCCAGAACUACAGAAAUGUAGUUGACGAGGAGGACGUUUAUCGAAUUUUCUGCGGAUGCCUCCAAA [G43C G59U] | < 1e-05 s⁻¹ | < 1e-05 s⁻¹ | < 1e-05 s⁻¹ | < 1e-05 s⁻¹ | < 1e-05 s⁻¹
10 | AUAAAAGCGCCAGAACUACAGAAAUGUAGUUGACGAGGAGGACGUUUAUCGAAUUUUCGGCGGAUGCCUCAAAA [G43C C71A] | < 1e-05 s⁻¹ | < 1e-05 s⁻¹ | < 1e-05 s⁻¹ | < 1e-05 s⁻¹ | –
11 | AUAAACGCGCCAGAAUUACAGAAAUGUAGUUGACGAGGAGGAGGUUUAUCGAAUUUUCGGCGGAUGCCUUCAAA [A6C C16U C70U] | < 1e-05 s⁻¹ | – | – | – | 9.69e-05 ± 1.9e-05 s⁻¹
